T1: HEK293/mPRLR (Mus musculus, UniProt Q08501)
T1 construct: HA; expressed in transfected cells; host or cells: HEK293
T1 sequence (Q08501 20-608): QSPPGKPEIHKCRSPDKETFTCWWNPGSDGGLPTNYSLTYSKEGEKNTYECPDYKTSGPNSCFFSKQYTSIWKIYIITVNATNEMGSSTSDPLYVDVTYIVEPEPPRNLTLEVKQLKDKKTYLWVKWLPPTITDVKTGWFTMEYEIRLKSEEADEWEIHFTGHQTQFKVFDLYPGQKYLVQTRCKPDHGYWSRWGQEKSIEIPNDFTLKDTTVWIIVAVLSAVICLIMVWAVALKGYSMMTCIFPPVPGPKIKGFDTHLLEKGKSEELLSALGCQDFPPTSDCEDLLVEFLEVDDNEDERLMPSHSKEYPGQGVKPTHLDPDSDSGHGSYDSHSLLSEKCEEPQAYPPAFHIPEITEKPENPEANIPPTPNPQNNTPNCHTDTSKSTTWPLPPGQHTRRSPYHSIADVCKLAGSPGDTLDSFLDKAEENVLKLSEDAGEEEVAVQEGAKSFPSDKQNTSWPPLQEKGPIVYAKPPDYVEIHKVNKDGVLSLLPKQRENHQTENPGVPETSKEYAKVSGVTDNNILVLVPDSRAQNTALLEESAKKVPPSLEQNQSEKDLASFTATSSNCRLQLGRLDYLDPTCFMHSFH

T2: T47D (native PRLR expressing cell line) (Homo sapiens, UniProt P16471)
T2 construct: a native PRLR expressing cell line (T47D); endogenous in cells; host or cells: T47D
T2 sequence (P16471 25-622): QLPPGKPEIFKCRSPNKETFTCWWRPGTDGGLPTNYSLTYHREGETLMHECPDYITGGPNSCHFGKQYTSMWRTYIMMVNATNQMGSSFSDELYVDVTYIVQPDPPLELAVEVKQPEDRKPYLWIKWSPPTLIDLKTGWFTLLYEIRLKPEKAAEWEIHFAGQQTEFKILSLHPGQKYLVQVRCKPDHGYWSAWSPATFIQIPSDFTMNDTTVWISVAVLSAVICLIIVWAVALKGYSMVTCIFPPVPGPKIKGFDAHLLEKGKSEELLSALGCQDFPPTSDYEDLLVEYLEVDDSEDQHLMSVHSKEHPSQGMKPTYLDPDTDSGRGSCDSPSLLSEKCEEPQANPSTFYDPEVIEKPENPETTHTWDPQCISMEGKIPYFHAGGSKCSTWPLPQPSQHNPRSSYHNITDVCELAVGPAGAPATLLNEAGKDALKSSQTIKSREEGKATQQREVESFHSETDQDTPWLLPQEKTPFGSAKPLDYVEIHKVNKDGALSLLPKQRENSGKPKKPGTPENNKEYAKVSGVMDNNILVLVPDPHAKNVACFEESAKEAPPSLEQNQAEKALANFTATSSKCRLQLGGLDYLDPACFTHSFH


Key:
[1] = target: T1, HEK293/mPRLR; experiment: FACS cell surface binding
Outline: (§1)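 HEK293 lines stably expressing HA-tagged human, cynomolgus or mouse PRLR, native-expressing T47D and parental HEK293 tested by flow cytometry. Cells (1×10^5) stained with primary antibody 30 min on ice, then PE anti-human secondary; MFI expressed as fold over isotype control.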

[2] = target: T2, T47D (native PRLR expressing cell line); experiment: FACS cell surface binding
Outline: as §1

[3] = test system: HEK293/hPRLR/STAT5-Luc cells (human PRLR); experiment: STAT5-Luc luciferase reporter assay, blocking of PRL-mediated receptor activation; assay type: cell-based; conditions: for IC50: 5 nM constant PRL, 6 hr at 37° C.; for Percent Blocking at 100 nM Antibody: 5 nM PRL
Text: The ability of anti-PRLR antibodies to block prolactin (PRL)-mediated receptor activation was examined in a luciferase-based reporter assay. The endocrine hormone PRL binds to the extracellular domain of its cognate receptor PRLR, triggering rapid homodimerization and activating several downstream signaling cascades.
In this example, an engineered cell line was used to determine the ability of anti-PRLR antibodies to block ligand activation of the PRLR receptor. Briefly, HEK293/hPRLR/STAT5-Luc cell lines with stable incorporation of a human PRLR expression cassette and the STAT5-dependent luciferase reporter were generated via sequential rounds of Lipofectamine® 2000-mediated transfection (LifeTechnologies, Carlsbad, Calif.). Cells were selected for at least two weeks in the presence of 500 μg/mL G418 (hPRLR) and 100 μg/mL hygromycin B (STAT5-Luc). The STAT5-Luc assay utilized 2×10^5 HEK293/hPRLR/STAT5-Luc cells seeded in complete growth medium on PDL-coated 96 well plates grown overnight at 37° C., 5% CO2. To generate antibody inhibition curves, cells were incubated (6 hr at 37° C.) with serially diluted anti-human PRLR antibodies (100 nM to 24 pM) in the presence of 5 nM constant PRL before recording signal. PRL dose response curves were generated by the addition of serially diluted PRL (100 nM to 24 pM) to cells and recording signal after a 6 hr (37° C.) incubation in the absence of antibodies. The ability of the antibodies to activate PRLR in the absence of ligand was also assessed.
Luciferase activity was measured with ONE-GLO™ reagent (Promega, Madison, Wis.). Relative light units (RLUs) were measured on a Victor luminometer (Perkin Elmer, Shelton, Conn.). EC50/IC50 values were determined from a four-parameter logistic equation over an 8-point response curve using GraphPad Prism. Percent blocking and percent activation are reported for the highest antibody dose.

| Molecule | FACS Cell Binding (Fold Above Background) [1] [Fold Above Background] | FACS Cell Binding (Fold Above Background) [2] [Fold Above Background] | IC50 [3] [nM] | Percent Blocking at 100 nM Antibody [3] [%] |
| --- | --- | --- | --- | --- |
| H1H6804P: anti-PRLR antibody, human IgG1 Fc; HCVR/LCVR SEQ ID NOs 242/250 (antibody, V domains shown, human IgG1 Fc) VH: QVTLKESGPVLVKPTQTLSLTCTVSGFSLSDAGMGVSWIRQPPGKALEWLAHIFSNDGKSYSTSLKSRLTISKDTSKRQVVLTMTNMDPVDTATYYCARIRTGTYSLYLDYWGQGTLVTVSS VL: DIQMTQSPSSLSASVGDRVTITCRASQSINSYLNWYQQKPGKAPKLLLYFASSLQSGVPSRFSGSGSGTDFTLTISSLQPEDFASYYCQESYSTPWTFGQGTKVEIK | 1 | 34 | 7.89 | 100 |
| H1H6953N: human IgG1 Fc form of H1M6953N; anti-PRLR; HCVR/LCVR SEQ ID NOs 274/282 (antibody, V domains shown, human IgG1 Fc) VH: EVQLLESGGGLVQPGGTLRLSCAASGFTFSAYAMSWVRQAPGKGLEWVSSINVRAGDTYYADSVKGRFTISRDNSKNTLFLLMNSLRAEDTAAYYCAKARYSSNWGFDFWGQGTLVTVSS VL: DIVMTQSPDSLTVSLGARTTINCQSSQTILHSSNNHNYLAWYQQKPGLPPKLLIYWSSTRESGVPDRFSGSGSGTDFTLTISSLQAEDVAIYYCQQYSNTPYTFGQGTKLEIN | 2 | 40 | 0.105 | 100 |
| H1H6803P: anti-PRLR antibody, human IgG1 Fc; HCVR/LCVR SEQ ID NOs 226/234 (antibody, V domains shown, human IgG1 Fc) VH: EVQLVESGGGVVRPGGSLRLSCAASGFKFDDYGMTWVRHVPGKGLEWVSGINWNGGRTGYTDSVKGRFTISRDNAKNSLYLQMNSLRAEDTALYHCAGARRDAFDIWGQGTMVTVSS VL: DIQMTQSPSSLSASIGDRVTITCRASQNIIKYLNWYQQNAGKAPKLLIYTASSLQSGVPSRFSGSGSGTDFTLTISSLQPEDFATYYCQQSSSSPYTFGQGTKLEIK | 1 | 39 | 0.627 | 100 |

Second part, led by results:

| FACS Cell Binding (Fold Above Background) [1] [Fold Above Background] | FACS Cell Binding (Fold Above Background) [2] [Fold Above Background] | Molecule | IC50 [3] [nM] | Percent Blocking at 100 nM Antibody [3] [%] |
| --- | --- | --- | --- | --- |
| 1 | 41 | H1H6800P: anti-PRLR antibody, human IgG1 Fc; HCVR/LCVR SEQ ID NOs 194/202 (antibody, V domains shown, human IgG1 Fc) VH: EVQLVESGGGLVQPGRSLRLSCAASGFTFDGYAMHWVRQGPGKGLEWVSGISWYSDTLGYADSVKGRFTISRDNAKNSLYLQMNSLRTEDTAFYYCAKISSSGWAFDYWGQGTLVTVSS VL: EIVLTQSPGTLSLSPGERATLSCRASHSVSSAYLAWYQQKPGQTPRLLIYGTSSRATGIPDRFSGSGSGTDFTLTISRLEPEDFAVYYCQQYGSSPLFTFGPGTKVDIK | 0.355 | 100 |
| 56 | 45 | H1H6801P: anti-PRLR antibody, human IgG1 Fc; HCVR/LCVR SEQ ID NOs 210/218 (antibody, V domains shown, human IgG1 Fc) VH: QVQLQQSGPGLVKPSQTLSLTCVISGDSVSSNTAWNWVRQSPSRGLEWLGRTYYRSKWYNDYAVSVKSRITINPDTSKNQFSLLMNSVTPEDTAVYYCARVVRGLNYFDYWGQGTLVTVSS VL: DIVMTQSPDSLAVSLGERATINCKSSQSVLYNSNNKNYLAWYQQKPGQPPKLLIYWSSSRESGVPDRFSGSGSGTDFTLTISGLQAEDVAIYYCQQYSTIPYTFGQGTKLEIK | 0.14 | 100 |

Source: patent publication US9688764B2, “Methods of treating breast cancer by administering anti-human prolactin receptor (PRLR) antibodies” (REGENERON PHARMACEUTICALS, INC., priority 2013, dated 2017)
